Reference: patent US20230189773A1, “ENGINEERED CELLS, ANIMAL MODELS, AND USES THEREOF FOR MODELING LOW GRADE GLIOMA (LGG)” (Washington University, priority 2021, published 2023)
“Also recorded” adds a separate entry of the source.

B1: recombinant murine Cxcl10 protein: murine recombinant Cxcl10 (PeproTech), a cytokine belonging to the CXC chemokine family (protein, UniProt P17515 22-98, looked up)
C-X-C motif chemokine 10: IPLARTVRCNCIHIDDGPVRMRAIGKLEIIPASLSCPRVEIIATMKKNDEQRCLNPESKTIKNLMKAFSQKRSKRAP

What was measured:
[1] = system: NF1-null iNPCs, iGRPs and iOPCs; assay: In vitro PD0325901 treatment of iNPCs, iGRPs and iOPCs (Ki67, cleaved caspase-3 immunocytochemistry); assay type: cell-based, human; details: 10 nM, 24 h
Procedure: (§1) Twenty 4-week-old Rag1^−/− mice of both sexes harboring NF1-null iNPC-LGGs 1 month post-injection were intraperitoneally injected either with 10% DMSO in saline or with 5 mg/kg/day PD0325901 (Sigma-Aldrich), 6 days a week, for a total of four weeks. Treated mice were collected for histopathologic analysis. For in vitro experiments, iNPCs, iGRPs and iOPCs were treated with 10 nM PD0325901 for 24 h prior to immunocytochemical analysis.
(§2) Immunocytochemistry was performed on hiPSCs, iNPCs, iGRPs, iOPCs and astrocytes using the primary antibodies described in Additional file 1: Table 51. […] Appropriate secondary Alexa-Fluor-conjugated secondary antibodies diluted to 1:200 were employed and bis-benzamide (Hoechst) was used as a nuclear counterstain. Cells were mounted with Immu-mount (Fisher) and imaged on a Leica DMi1 fluorescent microscope using the Leica LAS X software, as per manufacturer's instructions.

NF1-null iNPC-LGGs = assay: PD0325901 treatment of Rag1-/- mice harboring NF1-null iNPC-LGGs; assay type: in vivo, mouse; details: 5 mg/kg/day intraperitoneal, 6 days a week, four weeks, from 1 mpi
Procedure: as §1
Injected mice were transcardially perfused at 1, 3 or 6 months post-injection, initially with Ringer's solution, and then followed by ice-cold 4% paraformaldehyde. Whole mouse brains were harvested, post-fixed in 4% PFA and dehydrated in 70% ethanol. Dehydrated samples were then paraffin-embedded and serially sectioned (5 μm). Hematoxylin and eosin (H&E), as well as antibody immunohistochemical staining, were performed using the primary antibodies, Vectastain ABC kit (Vector Laboratories) and appropriate biotinylated secondary antibodies provided in TABLE 1.
Immunostaining was performed using the primary antibodies listed in TABLE 1 with appropriate Alexa Fluor-conjugated secondary antibodies. Bis-benzamide (Hoechst) was used as a nuclear counterstain.

NF1-null iNPCs [2] = assay: GFAP+ astrocytic differentiation of NF1-null iNPCs after recombinant Cxcl10; assay type: cell-based, human; details: for increase in GFAP+ astrocytic differentiation: NF1-null iNPCs
Procedure: as §2
(§3) Cxcl10 cDNA (Sino Biological) and lentiviral packaging vectors, or KIAA1549:BRAF adenoviral DNA, were transfected in HEK293T cells using Fugene HD (Promega) following the manufacturer's instructions. Viral supernatants were collected 48 h post-transfection, filtered, and used to directly infect iNPCs and iGRPs for 24 h. Cxcl10-GFP expression was confirmed by Western blotting as previously described. KIAA1549:BRAF-infected cells were puromycin-selected for 2 weeks prior to further expansion. Infected cells were used for intracranial injections in Rag1^−/− neonatal mice. For cell proliferation, cell death and differentiation analyses, iNPCs were treated with 25 or 100 pg/mL of murine recombinant Cxcl10 (PeproTech) for 24 h. Each experiment was performed a minimum of three times on independently generated samples.

NF1-null iNPCs [3] = assay: Cleaved caspase-3+ cells (programmed cell death) in NF1-null iNPCs after recombinant Cxcl10; assay type: cell-based, human; details: for increase in programmed cell death (cleaved caspase-3+ cells): NF1-null iNPCs
Procedure: as §2, §3

NF1-null iNPCs [4] = assay: Direct cell count of NF1-null iNPCs after recombinant Cxcl10; assay type: cell-based, human; details: for decrease in cell number (direct cell count): NF1-null iNPCs
Procedure: RAS activity (ThermoFisher), cAMP (Fisher) detection, BrdU proliferation assays (Roche) and direct cell counting were performed according to the manufacturer's instructions. Cxcl10 (Ray Biotech) ELISA assays were performed according to the manufacturer's instructions. Each assay was performed using a minimum of three independently generated biological replicates.
as §3

[5] = relative to vehicle-treated LGGs
[6] = 25 pg/mL recombinant Cxcl10, 24 h
[7] = 100 pg/mL recombinant Cxcl10, 24 h
[8] = range over ectopic Cxcl10 expression and recombinant Cxcl10 treatments (FIG. 19B)
[9] = range over ectopic Cxcl10 expression or 25 or 100 pg/mL recombinant Cxcl10 (FIG. 19A)

Molecule | apoptosis (cleaved caspase-3) [1] | cell proliferation (Ki67) [1] | presence of Ku80+ iNPC-LGGs after treatment (NF1-null iNPC-LGGs) | tumor cell apoptosis (TUNEL+ cells) (NF1-null iNPC-LGGs; [5]) | tumor cell proliferation (Ki67+ cells) (NF1-null iNPC-LGGs; [5]) | increase in GFAP+ astrocytic differentiation (NF1-null iNPCs [2]; [6]) [fold] | increase in GFAP+ astrocytic differentiation (NF1-null iNPCs [2]; [7]) [fold] | differentiated GFAP+ cells undergoing apoptosis (cleaved caspase-3+) (NF1-null iNPCs [2]; [8]) | share of total cells undergoing apoptosis (cleaved caspase-3+) that are GFAP+ (NF1-null iNPCs [2]; [8]) | increase in programmed cell death (cleaved caspase-3+ cells) (NF1-null iNPCs [3]; [6]) [fold] | increase in programmed cell death (cleaved caspase-3+ cells) (NF1-null iNPCs [3]; [7]) [fold] | percent of cleaved caspase-3+ cells increases (NF1-null iNPCs [3]; [9]) | decrease in cell number (direct cell count) (NF1-null iNPCs [4]; [6]) [%] | decrease in cell number (direct cell count) (NF1-null iNPCs [4]; [7]) [%] | NF1-null iNPC cell numbers decrease (direct cell count) (NF1-null iNPCs [4]; [9])
O=C(NOC[C@H](O)CO)c1ccc(F)c(F)c1Nc1ccc(I)cc1F [PD0325901] | increased hiPSC-LGG cell apoptosis; also recorded: increases apoptosis | reduced proliferation; also recorded: decreased cell proliferation; also recorded: decreases proliferation | still detectable | increased hiPSC-LGG cell apoptosis; also recorded: increased tumor cell apoptosis | reduced tumor cell proliferation; also recorded: decreased | – | – | – | – | – | – | – | – | – | –
B1 | – | – | – | – | – | 8.2 | 20.5 | 95-100% | 83.3-88.8% | 4.6 | 20.5 | 8.3-20.5 fold | 9 | 13 | 9-20%
